Results: the DeepSol protein solubility set

Assay: soluble on expression in E. coli; label from the status in PepcDB or PDB records

Sequence | soluble on expression in E. coli
MNRWEGLDEFVAVAETGQFTAAAERMGVSSSHISRQVARLEERLQTRLLYRSTRRVSLSEAGQTFLQHCQRLQDARDEALRAVSDLSAEPKGLLRMTCAVAYGERFIVPLVNAFMADYPQLRVDIELSNRQLDLLHEGFDLAIRLGRLSDSRLVATRLAPRVMYLCATPEYLRRHGTPQSPAELGQFNCLIGSSDLWSFLEDGRETQHRVQGNWRCNSGQAVLDAALRGFGLCQLPDYYVIEHLRSGRLASLLEGHQPPNTAVWALYPQQRHLSPKVRQLVDYLKEGLAQSHPGLAGEKNLR | not soluble
MNRWQGIIKQYKKYLPVDENTPIVTLYEGNTPLIEADNLARAIGFKGKIYLKYEGLNPTGSFKDRGMTLAISKAVEAGKRAVICASTGNTSASAAAYAARAGLRAYVLLPKGAVAIGKLSQAMIYGAKVLAIQGTFDDALNIVRKIGENFPVEIVNSVNPYRIEGQKTAAFEICDTLGEAPDYHFIPVGNAGNITAYWKGFKIYYEEGKITKLPRMMGWQAEGAAPIVKGYPIKNPQTIATAIKIGNPYSWKSALKAAQESGGKIDAVSDSEILYAYKLIASTEGVFCEPASAASVAGLIKLVREGFFKGGEVVTCTLTGNGLKDPDTAIKVCEEPITVPPDFDEVVKVLGF | soluble
MNSAKKEFEISHIFTDVSKLENGNFLLSPEEDHFNVPWDLQLYREDDHLDVYLRCTKLTENDEICAIDTEFELTLKTSNGKQMSRRVKVDFTLENIMIPAWRWSKVVSWETLLKEYLIDDSIIVEAAVMIKAMTGIPRMKLRSFEKSAQEYSDAIIAIGDEKFYVLKKFLAAHSTYFKDLLFGDFDFEQAENSEITLSDINSTDFQCLLEVLYGEPAIDEENIDGILKLAQKYNMPLRFGDVKSS | not soluble
MNSDLALLRLLQLASPGLPVGGFTYSQGLEWAVEAGWVRGVDSFAGWQREQVHDTLACLDWPVLARLYHACQAKDAEAFGHWSRFLLANRETAELRLEEQQRGAALARLLDGWQLGQAPAWRASLELTQLGGMAWLAAHWAIPLRQLALGHGFAWLEGAVMAGVKLVPFGQQAAQTLLRDLGADLPAALDQALALGDDQLGGGLPLLAIASSRHETQYTRLFRSLEHHHHHH | soluble
MNSFVLMATVIREPELRFTKENQTPVCEFLVEFPGMRDDSPKESLKVVGWGNLANTIKETYHPGDRLIIEGRLGMNMIERQEGFKEKRAELTASRISLVDSGNGINPGELSSPPEPEAVDLSNTDDIPFLEHHHHHH | soluble
MNSLILGAARRFVGLHLRVSVNLLQNESFSSYSFSSASAADVSPKGETFKSSSFLDSLRLATKLTDKGNSDSVLDLLRSYGFTDSQISSIIRSDSRVLIDNDATSLGSKLQFLQSRGASSSELTEVVSTVPKILGKREGKSLSRYYDFIKVIIEADKSSKYEKISHSLAQGNKIRNILVLRELGVPQKRLLLLLISKSQPVCGKEKFDASLKKVVEMGFDPTTSTFVHALHMLYQMSDKTIEEKIRVYRSVGFSVDDVWAMFKKWPRSLTHSEKKVANSIETFLGLGFSRDVFMMMFKRFPPCIGYSTEAVKKKTEFLVKEMNWPVKAVASIPQVLGYSLEKRTVPRCNVIKVLMSKGLLESELPPMSSVLTSTSESFLNLYVSKHDDKQLVAELMAIFTGNRVSLTDQKARLEQ | soluble
MNSQDAQNQVPPQKVDQEVDRLALMARAHQAIGELSDILVPLAAAFSSKGHSLYLVGGSVRDAFLGELGHDLDFTTSARPEETKAILDDYADVVWDTGIAFGTLSAEKHGQQIEITTFRSDLYDGNSRNPEVTFGDTLEGDLIRRDFKVNAMAVEIQADGELTFHDPVGGLEDLLTHTLDTPATPEQSFNDDPLRMLRAARFVSQLNFTLAPRVITAMTEMAQQITRITVERMQVELDKMILGKNPEAGIDLMVESGIAQIIYPEIPAMQMTQDEHMQHKDVYAHSLQVMRQAIDQEEDGPDLVLRWAALLHDCGKPDTRDFNEEGRVSFHQHEVVGAKLVRRRMRKLKYSKQMVGDVGQLVFLHMRFHGFSEGQWTDSAVRRYAADAGELLPRLHKLVRADCTTRNKRKAARLQATYDHLEERIAEIAAKEDLARVRPDLDGNEIMEILNIQAGPEVGKAWAFLKELRLERGPLDREVAIAELKSWWEGENNE | not soluble
MNSRIPEDLIERAHRGKTTKEDALLLLEVPPFELFRFADELRDLAAGDTVTYVVNRNINFTSRCTGSCGFCAFRTDDGKVLSIEEIMEKVREAEKANATEVCIQGGLLPDVGLDFYQGIVEAIKAEFPEMHVHSFSPMEVYHASRISEIPVKESLRRLKRSGLDTMPGTAAEILSDRVRKIICPAKLNTAEWIEVVTQAHAAGIPTTATMMYGHVETPEERINHMLTIREIQKETGGITEFVPLPFMPYNNPVGEKMIKEGRYATPGLEDLKVYAVSRILFHGHVDNIQASWVKLGKKFAQFSLHCGVNDLGGTLMEESISRSAGACHGEMITVDELEWMIHGAGRIPKERTTLYREAHELASRNSRKIAGCGAFE | not soluble
MNSSLSLLHPYPFEKLNVLFKDVTPADLPLIPLSIGEPKHPAPEFVKQAIIDNFNHLSTYPNSKGLPELRESIARWLTQRFQLNHISSEDHILPVTGTREGIFSFVQALINRDEAPYVVMPNPFYQIYEGATLLAGAKPYFINCTAENDYLGDFDAVPSEVWEKTALLFVCTPGNPTGAVLSKEKLKKLIQLSDQYNFVIASDECYSELWFDQAPVGLLEVCAEIGRDNYKNCIVFHSLSKRSNLPGMRSGFVAGDAELLKPYLKFRTYHGAAMPVQHQLASIAAWNDEAHVEENRQQYRAKFNLFQSELGQLIPLKKPDAGFYYWLHVDNDEAFAKMLMEKAHIKVLPGRYLSRETEQGNPGENHVRMALVADLAQCEQVVQRLKKVL | not soluble
MNTEVIHYIIRFLIGDESGNDQLLSRIGYTSKQSEMSRYSIVIRASNFFDSDIYGTDKAFPLLPLKEWEGVPLLFGEPTEELLEESDTLVLNADIVASTYFLISRYEEMYRRKLRDIHGRFPGRESLPFKAGFLQRPVVDEYGAILRTKIRQMGWPVKDPVPHFSMVNLTHDVDEPFEYRGWRSFARALIKERKSPFKAFRLAYANPASDRFFTFPRFVDWDKILRSKMPDCCRIIFFFKAPGKAPQDAPNYSLRKPLYQSLRSLVKNNGIVIGLHSNYSAGLNPELIGKQRKRLMSDTDMAVDCNRHHYLAAREPEDMQALISAGIRHDYTMGYADVAGFRLGTSRPVRFIMPSTRRLTELILHPLTLMDCTLHRQEYMGLDEATAIELCKELLMHTFIHGGEATLLWHNEYLSRDIHPWHARLYREVLRLIETMEEKQEEESFDYETAIDQ | not soluble
MNTGHDGALAYDEPIYLSDGNIINIGEFVDKFFKKYKNSIKKEDNGFGWIDIGNENIYIKSFNKLSLIIEDKRILRVWRKKYSGKLIKITTKNRREITLTHDHPVYISKTGEVLEINAEMVKVGDYIYIPKNNTINLDEVIKVETVDYNGHIYDLTVEDNHTYIAGKNEGFAVSASSGTLHHHHHH | soluble
MNTICKMRDIYKALSIFETAFEEVYGISLNEAMVLCALREAGKEITSTAIAERTEMAPSHTSKVIRAVEDKGLIRRALGEVDKRQMYFSLTEAGKKRLNELDLDKVEIPEMLKPLI | not soluble
MNTINANDLKTRGIAAIEAQLEEQPEAIIAVRGKDRYVVMQLEHYYYLRECELTAALAETRADLAAGRCEQESPEAHLARLDTLK | not soluble
MNTKPQLTLLKVQASYRGDPTTLFHQLCGARPATLLLESAEINDKQNLQSLLVIDSALRITALGHTVSVQALTANGPALLPLLDEALPPEVRNQARPNGRELTFPAIDAVQDEDARLRSLSVFDALRTILTLVDSPADEREAVMLGGLFAYDLVAGFENLPALRQDQRCPDFCFYLAETLLVLDHQRGSARLQASVFSEQASEAQRLQHRLEQLQAELQQPPQPIPHQKLENMQLSCNQSDEEYGAVVSELQEAIRQGEIFQVVPSRRFSLPCPAPLGPYQTLKDNNPSPYMFFMQDDDFTLFGASPESALKYDAGNRQIEIYPIAGTRPRGRRADGSLDLDLDSRIELEMRTDHKELAEHLMLVDLARNDLARICQAGSRYVADLTKVDRYSFVMHLVSRVVGTLRADLDVLHAYQACMNMGTLSGAPKVRAMQLIAALRSTRRGSYGGRVGYFTAVRNLDTCIVIRSAYVEDGHRTVQAGAGVVQDSIPEREADETRNKARAVLRAIATAHHAKEVF | soluble
MNTMLFSPYTIRGLTLKNRIVMSPMCMYSCDTKDGAVRTWHKIHYPARAVGQVGLIIVEATGVTPQGRISERDLGIWSDDHIAGLRELVGLVKEHGAAIGIQLAHAGRKSQVPGEIIAPSAVPFDDSSPTPKEMTKADIEETVQAFQNGARRAKEAGFDVIEIHAAHGYLINEFLSPLSNRRQDEYGGSPENRYRFLGEVIDAVREVWDGPLFVRISASDYHPDGLTAKDYVPYAKRMKEQGVDLVDVSSGAIVPARMNVYPGYQVPFAELIRREADIPTGAVGLITSGWQAEEILQNGRADLVFLGRELLRNPYWPYAAARELGAKISAPVQYERGWRF | soluble
MNTSILAPPESLLEAQKVRLAIREGYDRPTAGMANGLTQVNMISVPQDWAYDFLLYTQRNPQSCPVLDVIDAGQFQSRLIQDKQHDIRTDFPRYRIWEYGQCVDEVNDATSIWNNHPDLVTFLIGCSFSFESALLNAGIEVRHITDQRNVPMYLSNIPCASAGRISGNMVVSMRPIPAAQVSQAVQITAKMPRVHGAPVHIGDPKSLGIADLSKPDFGDFPRILDGEIPVFWACGVTPQAAVMRSKVPFAISHAPGYMLITDVPDQAWMLLEHHHHHH | not soluble
MNTTLFRWPVRVYYEDTDAGGVVYHASYVAFYERARTEMLRHHHFSQQALMAERVAFVVRKMTVEYYAPARLDDMLEIQTEITSMRGTSLVFTQRIVNAENTLLNEAEVLVVCVDPLKMKPRALPKSIVAEFKQ | soluble
MNTVADVMAGNDGEYCFHARTGKYGVYLKQDWRNEYNVGDIAVYEDSKPGTLNDFLIAPDEGDLKPDVVKRFEEMVAQAQQSAGAAAGNAQQTAQDVAAAATARDDAQRFAEKARQDATVTAEDRKATAEDVTSTGANAAAAGQSAQDAAGYARAAEQAKNDIDAALTGTLKTANHLSETAAAGEKAQQKSRDNLGLKSAATMEAQSDIYDRTKGRLAIPGAFGFGCAFLPEDVIRFDTKSDFLAWVRNALPGEYSVAGPYGIIIPDTRFEGVLSIRWTDARPETTEPRYRAKSLTFYGINGPIYHTRYCYWPISRLTGWVKINITTEDIIYRIVASSVRNRWGDPDIGGLIIAAYQGEADGDKVIRLVRGQSYRGSRLGPVGISVPGTPTGTYIVSPQFFITGCSEHSLPGSYCALSGVPDAHVSGAMPGLFIRTSRGMHRGN | not soluble
MNTVSPAKKKVIIIGAGIAGLKAASTLHQNGIQDCLVLEARDRVGGRLQTVTGYQGRKYDIGASWHHDTLTNPLFLEEAQLSLNDGRTRFVFDDDNFIYIDEERGRVDHDKELLLEIVDNEMSKFAELEFHQHLGVSDCSFFQLVMKYLLQRRQFLTNDQIRYLPQLCRYLELWHGLDWKLLSAKDTYFGHQGRNAFALNYDSVVQRIAQSFPQNWLKLSCEVKSITREPSKNVTVNCEDGTVYNADYVIITVPQSVLNLSVQPEKNLRGRIEFQPPLKPVIQDAFDKIHFGALGKVIFEFEECCWSNESSKIVTLANSTNEFVEIVRNAENLDELDSMLEREDSQKHTSVTCWSQPLFFVNLSKSTGVASFMMLMQAPLTNHIESIREDKERLFSFFQPVLNKIMKCLDSEDVIDGMRPIENIANANKPVLRNIIVSNWTRDPYSRGAYSACFPGDDPVDMVVAMSNGQDSRIRFAGEHTIMDGAGCAYGAWESGRREATRISDLLKLEHHHHHH | soluble
MNVEINGKSLELSFGFKFLREIDNRLGLKVEQASIGQGVSMLPVGLESGNPVVIGEVLIASTSHLKKQAITINNIDEALDEIAENIGLEEFGSDILTELGKRPMTRNLVEVVETEEKPAEALEHHHHHH | not soluble
